Results taken from paper PMC4514675, “Novel Apo E-Derived ABCA1 Agonist Peptide (CS-6253) Promotes Reverse Cholesterol Transport and Induces Formation of preβ-1 HDL In Vitro” (PLoS ONE, 2015).

Assays:
ABCA1 = ABCA1 (Homo sapiens, UniProt O95477); assay: ABCA1-mediated phospholipid efflux from BHK-ABCA1 cells; assay type: cell-based; set-up: expressed in transfected cells; host or cells: BHK cells, stably transfected, induced with 10 nM mifepristone; conditions: mean of triplicates ± SD, n = 3
Method: Supplementary file pone.0131997.s003.tif: S2 Fig Phospholipid efflux from BHK cells expressing ABCA1 to increasing concentrations of lipid free CS-6253 and apo A-I. Baby hamster kidney (BHK) cells were labeled with ^3[H]-choline. ABCA1 expression was induced by treating BHK cells with 10 nM mifepristone. Cells were then changed into fresh DMEM medium [no apolipoprotein A-I (apoA-I)] and incubated with apoA-I or CS-6253 (0.96 uM). Medium was collected after 2 h. […] Results represent the mean of triplicates ± SD, n = 3. (TIF) Click here for additional data file.
Cells were seeded (50×10^3 cells) in 24 well plates containing DMEM plus 10% FBS with 3 μCi/ml ^3H-choline chloride (Perkin Elmer, Norwalk, Connecticut), for 72 hours as previously reported with minor changes). Cells were then put into induction medium for 18–20 h (10 nM mifepristone). This was followed by incubation with increased molar doses of apo A-I and CS-6253 for 2 h at 37°C. Efflux medium was collected, and cellular lipids were extracted with hexane/isopropanol (3:2 v/v), while total phospholipids from the medium were extracted in chloroform /methanol (2:1 v/v). Efflux was determined as percent of total ^3[H] Phospholipids in the medium. All results were conformed at least twice. (S2 Fig.)

human ABCG1 = target: T1, human ABCG1 (Homo sapiens, UniProt P45844); assay: ABCG1-mediated cholesterol efflux from BHK-ABCG1 cells; assay type: cell-based
T1 construct: expressed in transfected cells; host or cells: BHK cells, stably transfected, induced with 10 nmol/l mifepristone
Method: Supplementary file pone.0131997.s009.tif: S8 Fig In-vitro time-dependent ABCG1-mediated cholesterol efflux activity to nHDL-CS-6253 particles generated by BHK cells expressing ABCA1. Unlabeled BHK cells expressing ABCA1 were treated with 0.96 μM lipid free apo A-I or CS-6253 for 18 h as described in experimental procedures in the online-only Supplementary appendix, S1 Appendix. Then the medium was collected and added to 3[H]cholesterol-labeled ABCG1 expressing cells in a time-dependent fashion (0–6h), and assayed for cholesterol efflux (only 6h time point is shown). (TIF) Click here for additional data file.
Supplementary file pone.0131997.s010.tif: S9 Fig In-vitro ABCG1-mediated cholesterol efflux activity to lipid free CS-6253 and nHDL-CS-6253 particles generated by BHK cells expressing ABCA1. Unlabeled ABCA1 expressing cells were treated with increasing concentrations of apo A-I or CS-6253 for 18 h. The medium from unlabeled ABCA1 cells treated as described in experimental procedures, centrifuged to remove cellular debris, added to ^3[H]cholesterol-BHK ABCG1 expressing cells for 6 h, and assayed for efflux as described in the online-only Supplementary appendix, S1 Appendix. Lipid free peptide and apo A-I are also tested against ABCG1 expressing cells for 6h cholesterol efflux. (We selected 1 μM nHDL mimetic or nHDL-apo A-I or lipid free peptide and apo A-I for the figure). […] Efflux of ^3[H]cholesterol is shown as means ± SD of triplicate experiments. (TIF) Click here for additional data file.
All cell culture incubations were performed at 37 °C in a humidified 5% CO2. Cells (J774, or BHK overexpressing human ABCG1) were labeled with 2 μCi/ml ^3H-free cholesterol (Perkin Elmer, Norwalk, Connecticut) for 24 h. Simultaneously J774 cells were incubated with 2 μg/ml ACAT inhibitor (Sandoz, Sigma, Oakville, Canada). Afterward, J774 and BHK-ABCG1 were stimulated with 0.5 mmol/l (cpt-cAMP) (2) or 10 nmol/l mifepristone for 18-20 h, respectively (1). Cells were incubated with various doses of acceptor in media for 6 h for J774 macrophages and BHK-ABCG1 cells. Media were collected, centrifuged at 3.000 g for 5min to remove cell debris, and counted for radioactivity. Cells were lysed in 0.5 ml of (0.1N) NaOH overnight with constant shaking. Further, 0.2 ml cells lysates were mixed with scintillation liquid and counted for radioactivity. Efflux from stimulated cells without acceptor was subtracted from total efflux to determine net efflux. Cholesterol efflux was calculated according to the following formula as the percentage of ^3H-cpm medium/(^3H-cpm medium + ^3H-cpm cells) x 100%. Efflux efficiency (Km) was calculated using the Michaelis-Menten equation (Graph-Pad Prism6 software) respectively (S1, S8 and S9 Figs.)

[1] = BHK-ABCG1, 6 h, mean ± SD, triplicate

ABCA1, sequence (O95477 whole entry): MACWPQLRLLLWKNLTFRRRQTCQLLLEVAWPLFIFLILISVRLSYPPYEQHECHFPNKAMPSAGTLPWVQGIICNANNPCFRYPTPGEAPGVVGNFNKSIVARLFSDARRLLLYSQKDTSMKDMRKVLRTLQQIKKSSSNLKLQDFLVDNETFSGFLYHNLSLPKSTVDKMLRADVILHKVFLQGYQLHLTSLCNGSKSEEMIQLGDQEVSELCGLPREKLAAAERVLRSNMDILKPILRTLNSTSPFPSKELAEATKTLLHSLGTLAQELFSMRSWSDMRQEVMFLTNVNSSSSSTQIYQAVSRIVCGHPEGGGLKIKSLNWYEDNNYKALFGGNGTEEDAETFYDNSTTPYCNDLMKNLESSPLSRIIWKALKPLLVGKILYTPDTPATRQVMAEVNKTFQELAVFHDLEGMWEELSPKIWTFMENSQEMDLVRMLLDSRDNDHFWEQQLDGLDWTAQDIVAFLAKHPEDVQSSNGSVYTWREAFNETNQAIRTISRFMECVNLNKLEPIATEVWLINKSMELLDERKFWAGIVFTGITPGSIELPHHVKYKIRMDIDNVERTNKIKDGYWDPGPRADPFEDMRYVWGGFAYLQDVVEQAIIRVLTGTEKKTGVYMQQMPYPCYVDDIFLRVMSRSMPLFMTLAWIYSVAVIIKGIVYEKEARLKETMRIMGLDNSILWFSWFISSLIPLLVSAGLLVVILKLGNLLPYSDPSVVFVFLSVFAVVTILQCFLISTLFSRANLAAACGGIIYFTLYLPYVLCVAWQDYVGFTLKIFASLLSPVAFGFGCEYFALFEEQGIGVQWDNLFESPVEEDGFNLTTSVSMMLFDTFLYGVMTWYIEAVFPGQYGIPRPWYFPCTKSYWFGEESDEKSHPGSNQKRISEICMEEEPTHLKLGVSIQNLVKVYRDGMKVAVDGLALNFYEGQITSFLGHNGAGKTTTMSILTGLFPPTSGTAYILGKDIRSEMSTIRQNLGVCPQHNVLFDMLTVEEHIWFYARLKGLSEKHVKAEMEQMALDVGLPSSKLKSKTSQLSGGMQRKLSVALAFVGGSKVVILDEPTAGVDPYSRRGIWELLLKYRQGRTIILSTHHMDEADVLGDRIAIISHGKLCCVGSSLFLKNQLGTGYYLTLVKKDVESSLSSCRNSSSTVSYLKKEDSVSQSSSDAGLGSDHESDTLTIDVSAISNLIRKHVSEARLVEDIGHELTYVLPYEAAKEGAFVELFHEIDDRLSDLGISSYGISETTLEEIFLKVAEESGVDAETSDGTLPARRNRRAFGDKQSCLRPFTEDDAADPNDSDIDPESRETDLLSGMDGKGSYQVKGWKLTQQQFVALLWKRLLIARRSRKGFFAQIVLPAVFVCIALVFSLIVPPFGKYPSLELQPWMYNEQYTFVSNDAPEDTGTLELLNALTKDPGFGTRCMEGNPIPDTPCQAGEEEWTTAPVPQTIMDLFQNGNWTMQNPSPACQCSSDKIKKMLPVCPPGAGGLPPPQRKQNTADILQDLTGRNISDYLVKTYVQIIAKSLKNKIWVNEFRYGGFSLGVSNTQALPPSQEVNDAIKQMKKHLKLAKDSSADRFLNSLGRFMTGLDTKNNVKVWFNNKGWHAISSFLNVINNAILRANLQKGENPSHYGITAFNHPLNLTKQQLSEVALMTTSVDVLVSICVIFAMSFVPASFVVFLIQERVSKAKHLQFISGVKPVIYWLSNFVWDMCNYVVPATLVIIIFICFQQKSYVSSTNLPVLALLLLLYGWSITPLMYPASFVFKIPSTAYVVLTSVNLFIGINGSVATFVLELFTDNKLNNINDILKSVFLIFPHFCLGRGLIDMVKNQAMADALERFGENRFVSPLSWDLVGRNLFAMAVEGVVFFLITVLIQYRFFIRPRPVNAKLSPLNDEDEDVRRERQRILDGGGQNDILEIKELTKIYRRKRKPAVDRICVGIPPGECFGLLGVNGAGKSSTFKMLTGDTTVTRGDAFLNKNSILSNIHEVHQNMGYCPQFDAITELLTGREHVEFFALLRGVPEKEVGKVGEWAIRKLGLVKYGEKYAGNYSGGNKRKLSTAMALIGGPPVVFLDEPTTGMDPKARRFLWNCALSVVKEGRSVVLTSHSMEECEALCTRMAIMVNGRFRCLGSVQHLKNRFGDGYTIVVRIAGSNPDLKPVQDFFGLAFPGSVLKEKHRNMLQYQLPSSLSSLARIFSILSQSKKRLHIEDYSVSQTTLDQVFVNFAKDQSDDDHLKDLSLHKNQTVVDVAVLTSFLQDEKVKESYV

**Q.** With apolipoprotein A-I [apo A-I] as the substance, how does the Km (ABCA1; 2 h) read?
**A.** Its Km is 0.14 ± 0.02 µM.

**Q.** What about the “Km, phospholipid efflux” value (ABCA1; 2 h) of the same substance?
**A.** Its value is 3.65 ± 0.49 µg/mL.

**Q.** And the “Vmax, phospholipid efflux” value (ABCA1)?
**A.** The value was 0.77±0.02 % efflux/2h.

**Q.** And the Km (human ABCG1; [1])?
**A.** The Km was 0.06 ± 0.01 µM.

**Q.** What about the “Km, ABCG1-mediated cholesterol efflux” value (human ABCG1; [1]) of the same substance?
**A.** The value was 1.7 ± 0.50 µg/mL.

**Q.** What about the “Vmax, ABCG1-mediated cholesterol efflux” value (human ABCG1; BHK-ABCG1, mean ± SD, triplicate) of the same substance?
**A.** Its value is 0.96 ± 0.01 % efflux/6h.

**Q.** What about the “maximum net ABCG1 cholesterol efflux above base line” value (human ABCG1; lipid free, BHK-ABCG1, 6 h) of the same substance?
**A.** Its value is 1%.
